The target of this experiment is RSV-F protein, full-length, human RSV strain A2 (human respiratory syncytial virus, …, UniProt P03420 26-574). Nature of the experiment: 25 nM Eu3+-labeled antibody on tetracycline-induced 293-derived cells, 44 h post induction; time-resolved fluorescence, R3-47 nonspecific binding subtracted.

B1: motavizumab (antibody, V domains shown)
VH: QVTLRESGPALVKPTQTLTLTCTFSGFSLSTAGMSVGWIRQPPGKALEWLADIWWDDKKHYNPSLKDRLTISKDTSKNQVVLKVTNMDPADTATYYCARDMIFNFYFDVWGQGTTVTVSS
VL: DIQMTQSPSTLSASVGDRVTITCSASSRVGYMHWYQQKPGKAPKLLIYDTSKLASGVPSRFSGSGSGTEFTLTISSLQPDDFATYYCFQGSGYPFTFGGGTKVEIK
As to B1, the “fold amount of antibody bound, FGC-WPRE cell line compared to FGC cell line” value came to 6.31 fold.

These data come from patent publication US20140024076A1 (AstraZeneca / MedImmune, published 2014).
